Experimental findings from article PMC11661440, “TNIK: A redox sensor in endothelial cell permeability” (Science Advances, 2024) are described below.

The data set deals with the molecule itself. As to the kind of experiment: cross-linking; disulfide-linked species of purified GST-TNIK KD; oxidised in vitro with 50 uM H2O2 at 30°C for 15 min or without H2O2 (air oxidation); nonreducing (-DTT) or reducing (+DTT) SDS-PAGE and Western blotting.

B1: Recombinant GST-tagged TNIK kinase domain (human amino acids 1 to 367) (domain or fragment, UniProt Q9UKE5 1-367, looked up)
chain: MASDSPARSLDEIDLSALRDPAGIFELVELVGNGTYGQVYKGRHVKTGQLAAIKVMDVTGDEEEEIKQEINMLKKYSHHRNIATYYGAFIKKNPPGMDDQLWLVMEFCGAGSVTDLIKNTKGNTLKEEWIAYICREILRGLSHLHQHKVIHRDIKGQNVLLTENAEVKLVDFGVSAQLDRTVGRRNTFIGTPYWMAPEVIACDENPDATYDFKSDLWSLGITAIEMAEGAPPLCDMHPMRALFLIPRNPAPRLKSKKWSKKFQSFIESCLVKNHSQRPATEQLMKHPFIRDQPNERQVRIQLKDHIDRTKKKRGEKDETEYEYSGSEEEEEENDSGEPSSILNLPGESTLRRDFLRLQLANKERSEA
notes: Oxidised in vitro with 50 uM H2O2 (30°C, 15 min) or left without H2O2; The disulfide-linked species were seen on nonreducing SDS-PAGE; GST is kept on the protein; also called GST-TNIK KD; TNIK KD; source: bought: Thermo Fisher Scientific, recombinant purified
Turning to B1, the binding result was “binds”.
